Experiment [1] addresses T1, human glucagon receptor (human, UniProt P47871 26-477).
T1 construct: also called hGCGR; human GCGR
As to the kind of experiment: FACS on CHO-DHFR-hGCGR cells, antibody at 500, 50 and 5 nM; control is blank CHO-DHFR- cells.
Experimental: PBS containing 10 mM EDTA was used to detach the CHO-DHFR-hGCGR cells and 10⁵ cells/tube was dispensed into 1.5 mL EP tubes, and the supernatant was removed after centrifugation, The negative control sample was resuspended with a loading buffer (PBS, 2% FBS). For the positive control, 200 μL hGCGR antibody solution of specific concentrations was added to the cells and incubated at room temperature; after incubation, the cells were then centrifuged at 1500 rpm to remove the supernatant, washed with a FACS loading buffer and centrifuged again. The cells were resuspended with addition (200 μL/well) of a FITC labeled goat anti-mouse fluorescent antibody at 1:50 dilution (BD Pharmingen) and incubated at room temperature for 30 min in the dark. The supernatant was removed after centrifugation, and cells were washed with FACS loading buffer, centrifuged again, and resuspended with the loading buffer for FACS analysis.

Experiment [2] addresses T1, human glucagon receptor. The experiment can be described thus: cell-based or functional assay.

The text below walks through data of patent US20210122827A1 (GMAX BIOPHARM, published 2021).

B1: mouse ascites antibody L4H4 (antibody, V domains shown)
VH: DVQLQESGPGLVKPSQSLSLTCTVTGYSITSDYAWTWIRQFPGNKLEWMGYISFTGTTSYTPSLKSRISITRDTSKNQFFLYLNSVTAEDTATYYCVRSVIFTIDSWGQGTSVTVSS
VL: DIQMTQSPASLSASVGETVTITCRASGNIHNYLTWFQQRRGKSPQLLVYNAKALADGVPSRFSGSGSGTEYSLKINSLQPEDFGDYYCLHFWSSPLTFGAGTKLELKR
notes: Murine antibody produced from mouse ascites; also called GCGR antibody L4H4
For B1, in experiment [1], the binding result was “binds”.

B2: hGCGR antibody L7H7 (antibody, V domains shown)
VH: QVQLVQSGAEVKKPGASVKVSCKASGYTFTEYTMHWVRQAPGQRLEWIGGINPDNGGPSYSQKFKGRVTITRDTSASTAYMELSSLRSEDTAVYYCAEETHDYDKFAYWGQGTLVTVSS
VL: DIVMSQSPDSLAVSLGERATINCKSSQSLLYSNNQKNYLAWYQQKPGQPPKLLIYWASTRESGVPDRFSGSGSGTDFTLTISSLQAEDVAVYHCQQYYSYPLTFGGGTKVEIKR
Consider B2, for which the “IC50, antagonism of glucagon-activated hGCGR signaling, direct cAMP assay on CHO-DHFR- cells expressing human GCGR” value in experiment [2] was 139 nM.
